Consider 71 molecules from US20250011363A1, “OPTIMIZED SHORTENED PEPTIDE THAT BINDS TO ACETYLCHOLINE RECEPTOR, AND USE THEREOF” (SKINMED CO., LTD., priority 2021, published 2025).

Test [1] deals with acetylcholine receptor. Briefly: SPR, receptor immobilised on chip, peptide at 10 uM. Background: Surface plasmon resonance follows binding to a sensor surface in real time, without labels.
In test [2] the target is acetylcholine receptor. Briefly: SPR, AchR immobilized on CM5 chip, peptide at 10 µM.

As to KYCDKK [6mer-2-906], in test [1], the Binding affinity (RU) stood at 40 RU.

For KWRCR [5mer-433], in test [2], the Binding affinity (RU) was 73 RU.

In test [2], RQILK [5mer-120] returned a Binding affinity (RU) of 68 RU.

In turn, RGFTK [5mer-443] returned a Binding affinity (RU) in test [2] of 80 RU.

Consider KGQQR [5mer-143], for which the Binding affinity (RU) in test [2] turned out to be 64 RU.

Take RVYTR [5mer-419]: the Binding affinity (RU) in test [2] stood at 67 RU.

In test [2], RVRLR [5mer-437] displayed a Binding affinity (RU) of 50 RU.

For the molecule RQRCR [5mer-138], the Binding affinity (RU) in test [2] was determined as 71 RU.

In test [2], RQFSK [5mer-134] had a Binding affinity (RU) of 61 RU.

For the molecule KGVSK [5mer-137], the Binding affinity (RU) in test [2] stood at 77 RU.

For the molecule RQYSR [5mer-142], the Binding affinity (RU) in test [2] stood at 52 RU.

The molecule KQQYR [5mer-444] yielded a Binding affinity (RU) in test [2] of 65 RU.

Take RGLQK [5mer-446]: the Binding affinity (RU) in test [2] was found to be 53 RU.

RGVTK [5mer-126]: the Binding affinity (RU) in test [2] stood at 61 RU.

RQFLK [5mer-428] displayed a Binding affinity (RU) in test [2] of 86 RU.

As for KPDVRK [6mer-2-902], in test [1], the Binding affinity (RU) was found to be 26 RU.

For KVQLK [5mer-431], the Binding affinity (RU) in test [2] worked out at 81 RU.

As for RHEHRR [6mer-2-910], the Binding affinity (RU) in test [1] is 21 RU.

As to KRVTR [5mer-439], in test [2], the Binding affinity (RU) stood at 65 RU.

As for RRYQK [5mer-147], the Binding affinity (RU) in test [2] was 66 RU.

Regarding RSFSK [5mer-145], the Binding affinity (RU) in test [2] was determined as 62 RU.

RWQQR [5mer-141] showed a Binding affinity (RU) in test [2] of 50 RU.

KRFSK [5mer-144]: in test [2], the Binding affinity (RU) was determined as 58 RU.

Turning to KLFCR [5mer-420], the Binding affinity (RU) in test [2] stood at 84 RU.

For the molecule RVLQK [5mer-434], the Binding affinity (RU) in test [2] is 74 RU.

RQVTR [5mer-121] registered a Binding affinity (RU) in test [2] of 73 RU.

In test [2], RSYQK [5mer-122] displayed a Binding affinity (RU) of 78 RU.

The molecule KWRTK [5mer-430] gave a Binding affinity (RU) in test [2] of 80 RU.

In turn, KSLLK [5mer-129] returned a Binding affinity (RU) in test [2] of 63 RU.

Molecule RFSAKK [6mer-2-900] showed a Binding affinity (RU) in test [1] of 11 RU.

In turn, RRLLR [5mer-135] came in with a Binding affinity (RU) in test [2] of 64 RU.

In the case of KVRLR [5mer-442], the Binding affinity (RU) in test [2] is 61 RU.

In turn, RVYLK [5mer-424] registered a Binding affinity (RU) in test [2] of 87 RU.

RGVCR [5mer-128] gave a Binding affinity (RU) in test [2] of 56 RU.

The molecule RQIRK [5mer-448] had a Binding affinity (RU) in test [2] of 74 RU.

Turning to RYWDRK [6mer-2-901], in test [1], the Binding affinity (RU) worked out at 34 RU.

KGYYK [5mer-447] came in with a Binding affinity (RU) in test [2] of 76 RU.

For RRQLK [5mer-423], in test [2], the Binding affinity (RU) amounted to 60 RU.

In turn, KYKKKR [6mer-2-908] returned a Binding affinity (RU) in test [1] of 33 RU.

Consider KGFSK [5mer-124], for which the Binding affinity (RU) in test [2] is 58 RU.

On to KLIRK [5mer-441], for which the Binding affinity (RU) in test [2] is 53 RU.

In turn, RQVTK [5mer-440] returned a Binding affinity (RU) in test [2] of 57 RU.

Turning to RWVTK [5mer-127], the Binding affinity (RU) in test [2] turned out to be 86 RU.

Consider KGQRK [5mer-133], for which, in test [2], the Binding affinity (RU) is 84 RU.

Molecule RVFYK [5mer-436] came in with a Binding affinity (RU) in test [2] of 60 RU.

In test [2], RRVSR [5mer-426] gave a Binding affinity (RU) of 57 RU.

In test [2], KLRQR [5mer-435] had a Binding affinity (RU) of 69 RU.

The molecule RWFTK [5mer-146] showed a Binding affinity (RU) in test [2] of 52 RU.

In test [2], RVRCK [5mer-132] gave a Binding affinity (RU) of 83 RU.

In test [2], RRIYK [5mer-136] registered a Binding affinity (RU) of 75 RU.

RLFTR [5mer-445] registered a Binding affinity (RU) in test [2] of 77 RU.

Molecule KWICK [5mer-422] had a Binding affinity (RU) in test [2] of 87 RU.

In turn, RLQYK [5mer-139] gave a Binding affinity (RU) in test [2] of 73 RU.

As for RVRSR [5mer-438], the Binding affinity (RU) in test [2] is 76 RU.

In the case of KSQYK [5mer-429], in test [2], the Binding affinity (RU) was determined as 63 RU.

In test [2], KLRRR [5mer-131] returned a Binding affinity (RU) of 72 RU.

RSQTK [5mer-148] showed a Binding affinity (RU) in test [2] of 50 RU.

Regarding RCNPRR [6mer-2-909], the Binding affinity (RU) in test [1] turned out to be 42 RU.

KWRLR [5mer-140] yielded a Binding affinity (RU) in test [2] of 69 RU.

In turn, RGFYR [5mer-425] had a Binding affinity (RU) in test [2] of 80 RU.

Take RTMNRR [6mer-2-907]: the Binding affinity (RU) in test [1] came to 25 RU.

In test [2], RVVYK [5mer-421] had a Binding affinity (RU) of 68 RU.

The molecule KCCFKK [6mer-2-904] showed a Binding affinity (RU) in test [1] of 30 RU.

The molecule RGLYR [5mer-427] gave a Binding affinity (RU) in test [2] of 87 RU.

KWIRR [5mer-123] had a Binding affinity (RU) in test [2] of 53 RU.

KKMVKR [6mer-2-899] yielded a Binding affinity (RU) in test [1] of 13 RU.

RRFRK [5mer-130] had a Binding affinity (RU) in test [2] of 80 RU.

In the case of KKNPKK [6mer-2-903], the Binding affinity (RU) in test [1] came out at 40 RU.

On to RPKERR [6mer-2-905], for which the Binding affinity (RU) in test [1] was determined as 26 RU.

For RQVRR [5mer-432], the Binding affinity (RU) in test [2] amounted to 52 RU.

RVRQK [5mer-125] gave a Binding affinity (RU) in test [2] of 67 RU.
